Results published in paper PMC4863159.
Several values for one entry are separate records, joined by “and”; a condition that tells them apart may be missing. Equal entries are not always repeated.

Legend:
[1] = target: N-CRD-RHCC-N-CRD fusion protein (not stated | Staphylothermus marinus); test: cross-linking; spontaneous disulfide cross-linking of CRD-RHCC fusion proteins over time; loss of the dimer band into polymers on anti-His Western blot, samples every 30 minutes for 4 hours, single exponential decay fit (y = e^-x/tau)
[2] = target: C-CRD-RHCC-C-CRD fusion protein (not stated | Staphylothermus marinus); test: as above
[3] = target: N-CRD-RHCC-N-CRD fusion protein (not stated | Staphylothermus marinus); test: cross-linking; disulfide-linked oligomers of purified, oxidized CRD-RHCC fusion proteins in non-reducing SDS-PAGE; samples heat-denatured; control: reduced and treated with 60 mM iodoacetamide (IAA)
[4] = target: right-handed coiled-coil domain (RHCC) from Staphylothermus marinus, lacking CRDs (Staphylothermus marinus); test: SDS-PAGE at low SDS concentration; purified RHCC on SDS-PAGE with a low SDS concentration to preserve the tetrameric coiled-coil; monomer lane beside it
[5] = target: C9A/C18A C-CRD mutant (CRD-RHCC fusion protein); test: western blot densitometry of the dimer band over time (spontaneous disulfide cross-linking); details: no reducing agent added, read off a plot
[6] = target: C-CRD-RHCC-C-CRD fusion protein (not stated | Staphylothermus marinus); test: cross-linking; disulfide-linked oligomers of purified, oxidized CRD-RHCC fusion proteins in non-reducing SDS-PAGE; samples heat-denatured; control: reduced and treated with 60 mM iodoacetamide (IAA)

Substance N-CRD-RHCC-N-CRD fusion protein has a τ (decay of the dimer band into polymers) [1] of 340 min, a τ (decay of the dimer band into polymers) [2] of 251 min and a stoichiometry N [3] of 2.
“right-handed coiled-coil domain (RHCC) from Staphylothermus marinus, lacking CRDs (domain or fragment)” gave a stoichiometry N [4] of 4.
With “C-CRD-RHCC-C-CRD fusion protein C9A; C18A” the other: dimer loss (normalized) ([5]; t = 30 min, parent: est. 0.82) was 1, the other: dimer loss (normalized) ([5]; t = 60 min, parent: est. 0.38) was 0.91 and the other: dimer loss (normalized) ([5]; t = 90 min, parent: est. 0.29) was 0.92. The other: dimer loss (normalized) ([5]; t = 120 min, parent: est. 0.23) was 0.98, the other: dimer loss (normalized) ([5]; t = 180 min, parent: est. 0.23) was 1 and the other: dimer loss (normalized) ([5]; t = 240 min, parent: est. 0.22) was 1.
C-CRD-RHCC-C-CRD fusion protein was tested, and the τ (decay of the dimer band into polymers) [2] was 88 min and the stoichiometry N [6] was 3 and 2.
